Molecular target: T1, human epidermal growth factor receptor (EGFR) (Homo sapiens (A431 and FaDu cells), UniProt P00533)
T1 construct: human EGFR, full-length receptor presented by living A431 (epidermoid carcinoma) and FaDu (squamous carcinoma) cells; also called human EGFR; source: endogenous, on living A431 and FaDu cells
Experiment: radioligand binding; ^99mTc-labelled sdAb on A431 and FaDu cells, 1 h on ice, with or without pre-blocking by a 40-fold excess of unlabeled Cetuximab; read-out % ID/mg protein
Details: one partner purified

- binding result: binds
B1: EGFR-specific single-domain antibody EG2 (VHH)
VHH: QVKLEESGGGLVQAGDSLRVSCAASGRDFSDYVMGWFRQAPGKEREFVAAISRNGLTTRYADSVKGRFTISRDNDKNMVYLQMNSLKPEDTAVYYCAVNSAGTYVSPRSREYDYWGQGTQVTVSS
notes: an initial methionine was added by the NcoI site; Camelid-derived sdAb; Intradomain disulfide bridge formed in about 98% of the purified protein; also called sdAb EG2; ^99mTc-EG2; source: E. coli SHuffle T7 Express, cytoplasm (pET-28b:EG2), purified (Ni-IDA IMAC); not shown: His6, C-terminal, kept
